Assay results: the supplement of paper PMC7877785
± gives the uncertainty stated by the source.

Experiment: self-splicing fitness, log relative to wild type (ln ratio); higher = more splicing; Tetrahymena group I intron in knt gene, E. coli kanamycin selection, DiMSum; sequences stand for … in CUCUCU…GGAGGGAAAAGUUAUCAGGCAUGCACCUGGUAGCUAGUCUUUAAACCAAUAGAUUGCAUCGGUUUAAAAGGCAAGACCGUCAAAUUGCGGGAAAGGGGUCAACAGCCGUUCAGUACCAAGUCUCAGGGGAAACUUUGAGAUGGCCUUGCAAAGGGUAUGGUAAUAAGCUGACGGACAUGGUCCUAACCACGCAGCCAAGUCCUAAGUCAACAGAUCUUCUGUUGAUAUGGAUGCAGUUCACAGACUAAAUGUCGGUCGGGGAAGAUGUAUUCUUCUCAUAAGAUAUAGUCGGACCUCUCCUUAAUGGGAGCUAGCGGAUGAAGUGAUGCAACACUGGAGCCGCUGGGAACUAAUUUGUAUGCGAAAGUAUAUUGAUUAGUUUUGGAGUACUCGUGGUCG
In short: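 Fitness was computed with DiMSum as the error-weighted combination of replicate fold changes, kanamycin versus none, each normalised to wild type. The library randomised all eight intron nucleotides of the P1ex region, with the intron placed in the knt kanamycin-resistance gene on pET-22b(+) in E. coli BL21(DE3). Six replicate transformations were grown overnight at 37°C or 30°C on LB agar with or without 25 μg/mL kanamycin, plus 100 μg/mL carbenicillin, 50 μM IPTG and 0.2% rhamnose. Pooled colonies were amplicon-sequenced on an Illumina HiSeq 2500.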

Sequence | self-splicing fitness (ln) (37 °C) | self-splicing fitness (ln) (30 °C)
GCGUAGCAAUAUUACGCGAG | -2.54 ± 0.27 | –
GCGUAGCAAUAUUACGGAGG | -1.98 ± 0.18 | -3.61 ± 0.23
GCGUAGCAAUAUUACGGGCG | -2.09 ± 0.22 | -2.97 ± 0.22
GCGUAGCAAUAUUACGGGUU | -1.32 ± 0.15 | -2.12 ± 0.12
GCGUAGCAAUAUUACGUAUG | -2 ± 0.24 | -2.96 ± 0.3
GCGUAGCAAUAUUACGUAUU | -2.11 ± 0.19 | -2.67 ± 0.12
GCGUAGCAAUAUUACGUCAC | -0.245 ± 0.37 | –
GCGUAGCAAUAUUACGUCCG | -1.48 ± 0.21 | -2.52 ± 0.26
GCGUAGCAAUAUUACGUCUG | -3.38 ± 0.24 | -3.48 ± 0.23
GCGUAGCAAUAUUACGUGAG | -2.67 ± 0.17 | -2.75 ± 0.17
GCGUAGCAAUAUUACGUGAU | -1.56 ± 0.19 | -2.79 ± 0.24
GCGUAGCAAUAUUACGUUGU | -1.89 ± 0.18 | -2.73 ± 0.17
GCUAAGCAAUAUUACGAGAG | -1.27 ± 0.14 | -2.38 ± 0.12
GCUAAGCAAUAUUACGAUAA | -1.1 ± 0.17 | -1.88 ± 0.17
GCUAAGCAAUAUUACGCCCG | -0.34 ± 0.17 | -0.889 ± 0.11
GCUAAGCAAUAUUACGCGCG | -0.075 ± 0.13 | -0.427 ± 0.084
GCUAAGCAAUAUUACGCUAA | -2.3 ± 0.21 | -3.29 ± 0.34
GCUAAGCAAUAUUACGGCAU | -0.863 ± 0.12 | -2.13 ± 0.1
GCUAAGCAAUAUUACGGCUG | -2.03 ± 0.18 | -2.83 ± 0.15
GCUAAGCAAUAUUACGGGAG | -1.28 ± 0.17 | -3.12 ± 0.34
GCUAAGCAAUAUUACGGGCC | -2.28 ± 0.39 | –
GCUAAGCAAUAUUACGGGGC | -2.87 ± 0.28 | -4.76 ± 0.38
GCUAAGCAAUAUUACGGGGG | -1.89 ± 0.22 | -3.45 ± 0.28
GCUAAGCAAUAUUACGGGUG | 0.116 ± 0.079 | -1.24 ± 0.069
GCUAAGCAAUAUUACGGUCC | -0.541 ± 0.3 | -1.4 ± 0.22

Sequence | self-splicing fitness (ln) (37 °C) | self-splicing fitness (ln) (30 °C)
GCUAAGCAAUAUUACGGUUA | -1.49 ± 0.094 | -1.33 ± 0.1
GCUAAGCAAUAUUACGGUUU | -0.522 ± 0.095 | -0.872 ± 0.069
GCUAAGCAAUAUUACGUCAG | -2.21 ± 0.22 | -3.84 ± 0.28
GCUAAGCAAUAUUACGUCGU | -1.3 ± 0.095 | -1.39 ± 0.072
GCUAAGCAAUAUUACGUCUC | -0.164 ± 0.072 | -0.757 ± 0.066
GCUAAGCAAUAUUACGUCUU | 0.136 ± 0.13 | -1.18 ± 0.13
GCUAAGCAAUAUUACGUGCA | -0.212 ± 0.1 | -0.433 ± 0.094
GCUAAGCAAUAUUACGUGUA | -0.0918 ± 0.088 | -1.29 ± 0.087
GCUAAGCAAUAUUACGUUGG | -1.79 ± 0.12 | -3.67 ± 0.15
GCUCAGCAAUAUUACGAAAA | -1.02 ± 0.18 | -0.758 ± 0.13
GCUCAGCAAUAUUACGAAAC | -0.851 ± 0.17 | -0.549 ± 0.14
GCUCAGCAAUAUUACGAAGC | -2.33 ± 0.15 | -2.75 ± 0.12
GCUCAGCAAUAUUACGAAUU | 0.155 ± 0.087 | -1.04 ± 0.064
GCUCAGCAAUAUUACGACGC | -0.102 ± 0.19 | -0.319 ± 0.12
GCUCAGCAAUAUUACGAGCG | -0.923 ± 0.11 | -2.81 ± 0.16
GCUCAGCAAUAUUACGCAGC | -2.67 ± 0.44 | -2.98 ± 0.35
GCUCAGCAAUAUUACGCAGG | -1.29 ± 0.098 | -1.52 ± 0.084
GCUCAGCAAUAUUACGCAGU | -1.13 ± 0.14 | -2.41 ± 0.15
GCUCAGCAAUAUUACGCCGA | -1.39 ± 0.34 | -2.43 ± 0.26
GCUCAGCAAUAUUACGCUGG | -2.27 ± 0.22 | -2.98 ± 0.16
GCUCAGCAAUAUUACGCUUG | 0.227 ± 0.1 | -2.04 ± 0.11
GCUCAGCAAUAUUACGCUUU | -0.887 ± 0.083 | -0.857 ± 0.077
GCUCAGCAAUAUUACGGAAA | -0.337 ± 0.12 | -1.62 ± 0.15
GCUCAGCAAUAUUACGGACA | -0.983 ± 0.13 | -1.25 ± 0.14
GCUCAGCAAUAUUACGGAGA | 0.284 ± 0.14 | -0.638 ± 0.095

Sequence | self-splicing fitness (ln) (37 °C) | self-splicing fitness (ln) (30 °C)
GCUCAGCAAUAUUACGGUCU | -0.0674 ± 0.12 | -0.866 ± 0.087
GCUCAGCAAUAUUACGGUGG | -1.41 ± 0.11 | -2.89 ± 0.17
GCUCAGCAAUAUUACGGUUA | -0.237 ± 0.11 | -0.772 ± 0.12
GCUCAGCAAUAUUACGGUUG | -2.28 ± 0.24 | -4.11 ± 0.27
GCUCAGCAAUAUUACGUCAC | -2.06 ± 0.22 | -3.37 ± 0.22
GCUCAGCAAUAUUACGUGAG | -3.23 ± 0.2 | -4.29 ± 0.25
GCUCAGCAAUAUUACGUGUA | -0.00875 ± 0.067 | -0.241 ± 0.058
GCUCAGCAAUAUUACGUGUC | -0.662 ± 0.081 | -1.55 ± 0.078
GCUCAGCAAUAUUACGUUUU | 0.00509 ± 0.068 | -1.13 ± 0.056
GCUGAGCAAUAUUACGAAGU | -1.72 ± 0.41 | –
GCUGAGCAAUAUUACGAUUC | -0.665 ± 0.11 | -0.602 ± 0.1
GCUGAGCAAUAUUACGCGAG | -1.83 ± 0.23 | -2.52 ± 0.16
GCUGAGCAAUAUUACGCUAU | -3.59 ± 0.28 | -3.25 ± 0.19
GCUGAGCAAUAUUACGCUGG | -2.22 ± 0.42 | -3.26 ± 0.31
GCUGAGCAAUAUUACGGAAU | -1.3 ± 0.17 | -3.57 ± 0.25
GCUGAGCAAUAUUACGGAUG | -1.22 ± 0.12 | -3.53 ± 0.18
GCUGAGCAAUAUUACGGCGC | -0.0749 ± 0.15 | -0.35 ± 0.13
GCUGAGCAAUAUUACGGCUG | -1.96 ± 0.44 | -1.57 ± 0.26
GCUGAGCAAUAUUACGUACA | -2.88 ± 0.28 | -2.45 ± 0.24
GCUGAGCAAUAUUACGUACU | -1.07 ± 0.27 | -1.76 ± 0.23
GCUGAGCAAUAUUACGUCAG | -2.15 ± 0.26 | -3.35 ± 0.24
GCUGAGCAAUAUUACGUGCG | -1.01 ± 0.14 | -1.62 ± 0.099
GCUGAGCAAUAUUACGUGCU | -3.39 ± 0.2 | -3.42 ± 0.12
GCUGAGCAAUAUUACGUUGC | -2.53 ± 0.17 | -4.04 ± 0.2
GCUUAGCAAUAUUACGAAAU | -0.498 ± 0.095 | -0.692 ± 0.076

Sequence | self-splicing fitness (ln) (37 °C) | self-splicing fitness (ln) (30 °C)
GCUUAGCAAUAUUACGAAGA | -0.855 ± 0.15 | 0.387 ± 0.24
GCUUAGCAAUAUUACGACCG | -1.19 ± 0.29 | -1.2 ± 0.26
GCUUAGCAAUAUUACGAGCC | -1.53 ± 0.39 | -4.35 ± 0.39
GCUUAGCAAUAUUACGAGGC | -1.93 ± 0.41 | –
GCUUAGCAAUAUUACGAUGC | -0.976 ± 0.21 | -1.43 ± 0.13
GCUUAGCAAUAUUACGAUUG | -1.01 ± 0.17 | -3.31 ± 0.25
GCUUAGCAAUAUUACGCAAU | -1.35 ± 0.13 | -0.651 ± 0.14
GCUUAGCAAUAUUACGCUAG | -2.19 ± 0.14 | -2.81 ± 0.12
GCUUAGCAAUAUUACGCUCG | -0.0325 ± 0.16 | -0.579 ± 0.1
GCUUAGCAAUAUUACGGAAG | -1.68 ± 0.14 | -2.07 ± 0.14
GCUUAGCAAUAUUACGGCAC | 0.326 ± 0.28 | -2.62 ± 0.44
GCUUAGCAAUAUUACGGCGG | -3.14 ± 0.26 | -3.5 ± 0.2
GCUUAGCAAUAUUACGGGGU | -2.55 ± 0.21 | -2.56 ± 0.16
GCUUAGCAAUAUUACGGUAU | -1.15 ± 0.091 | -1.74 ± 0.074
GCUUAGCAAUAUUACGUAAC | -0.62 ± 0.24 | -0.517 ± 0.11
GCUUAGCAAUAUUACGUACG | 0.0666 ± 0.089 | -1.07 ± 0.065
GCUUAGCAAUAUUACGUAUG | -1.17 ± 0.2 | -1.6 ± 0.18
GCUUAGCAAUAUUACGUGUU | -0.409 ± 0.087 | -0.915 ± 0.081
GCUUAGCAAUAUUACGUUAA | -2.84 ± 0.29 | –
GCUUAGCAAUAUUACGUUUG | -1.58 ± 0.14 | -2.23 ± 0.12
GGAAAGCAAUAUUACGACGC | 0.595 ± 0.16 | -0.197 ± 0.1
GGAAAGCAAUAUUACGAUGG | -2.39 ± 0.21 | -3.14 ± 0.22
